Source: article PMC6159516 (Nucleic Acids Research, 2018)
Each block holds one molecule with its values, some of them ahead of it.

How the values were obtained:
[1] = molecular target: FANCJ-R707C with a C-terminal FLAG tag (human) (UniProt Q9BX63)
FANCJ-WT = molecular target: T1, FANCJ-WT (Homo sapiens, UniProt Q9BX63 1-1249); test: EMSA; 5 mM Mg2+, no ATP; EMSA: 40 mM Tris-HCl pH 7.4, 25 mM KCl, 5 mM MgCl2, 2 mM DTT, 2% glycerol, 100 ng/ul BSA, no ATP, 0.5 nM DNA, 24 C 30 min; native 5% PAGE in 1x TBE at 4 C
T1 sequence: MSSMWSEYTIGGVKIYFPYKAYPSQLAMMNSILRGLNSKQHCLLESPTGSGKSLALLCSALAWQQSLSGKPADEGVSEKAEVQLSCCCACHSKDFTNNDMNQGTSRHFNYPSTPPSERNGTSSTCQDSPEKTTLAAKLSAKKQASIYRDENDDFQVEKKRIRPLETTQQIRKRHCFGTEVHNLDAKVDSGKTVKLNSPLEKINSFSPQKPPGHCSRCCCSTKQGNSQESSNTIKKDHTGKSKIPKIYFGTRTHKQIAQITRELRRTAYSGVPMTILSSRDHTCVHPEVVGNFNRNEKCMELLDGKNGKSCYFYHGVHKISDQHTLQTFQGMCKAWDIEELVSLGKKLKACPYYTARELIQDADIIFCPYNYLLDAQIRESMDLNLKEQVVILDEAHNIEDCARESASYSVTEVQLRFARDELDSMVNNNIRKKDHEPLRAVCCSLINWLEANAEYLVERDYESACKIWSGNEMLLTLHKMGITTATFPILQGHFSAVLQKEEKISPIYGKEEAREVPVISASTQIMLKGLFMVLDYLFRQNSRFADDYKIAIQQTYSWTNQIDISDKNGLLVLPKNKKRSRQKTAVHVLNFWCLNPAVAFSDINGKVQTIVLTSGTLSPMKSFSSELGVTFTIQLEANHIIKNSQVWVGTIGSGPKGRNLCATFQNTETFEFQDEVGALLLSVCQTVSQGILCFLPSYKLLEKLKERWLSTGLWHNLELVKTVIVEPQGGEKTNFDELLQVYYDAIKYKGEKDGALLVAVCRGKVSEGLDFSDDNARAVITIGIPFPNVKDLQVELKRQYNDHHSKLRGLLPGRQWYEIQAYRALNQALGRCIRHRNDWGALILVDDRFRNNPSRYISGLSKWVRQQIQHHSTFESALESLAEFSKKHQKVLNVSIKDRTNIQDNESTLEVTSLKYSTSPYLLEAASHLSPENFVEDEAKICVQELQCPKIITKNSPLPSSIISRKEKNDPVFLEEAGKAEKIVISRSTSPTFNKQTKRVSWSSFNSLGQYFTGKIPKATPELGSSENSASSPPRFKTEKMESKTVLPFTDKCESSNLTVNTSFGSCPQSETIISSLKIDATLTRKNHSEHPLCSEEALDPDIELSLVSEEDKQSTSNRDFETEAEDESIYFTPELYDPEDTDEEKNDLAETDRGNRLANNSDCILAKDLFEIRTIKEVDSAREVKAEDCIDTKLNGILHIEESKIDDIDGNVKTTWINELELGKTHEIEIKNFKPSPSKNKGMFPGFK

[2] = molecular target: T2, FANCJ-wild type (WT) with a C-terminal FLAG tag (human), Q9BX63; test: SEC; purified recombinant FANCJ applied to a Superdex-200 column on an AKTA FPLC, UV detection, calibrated with molecular mass markers; dimer and monomer peaks; conditions: remark: other sources report otherwise
T2 chain: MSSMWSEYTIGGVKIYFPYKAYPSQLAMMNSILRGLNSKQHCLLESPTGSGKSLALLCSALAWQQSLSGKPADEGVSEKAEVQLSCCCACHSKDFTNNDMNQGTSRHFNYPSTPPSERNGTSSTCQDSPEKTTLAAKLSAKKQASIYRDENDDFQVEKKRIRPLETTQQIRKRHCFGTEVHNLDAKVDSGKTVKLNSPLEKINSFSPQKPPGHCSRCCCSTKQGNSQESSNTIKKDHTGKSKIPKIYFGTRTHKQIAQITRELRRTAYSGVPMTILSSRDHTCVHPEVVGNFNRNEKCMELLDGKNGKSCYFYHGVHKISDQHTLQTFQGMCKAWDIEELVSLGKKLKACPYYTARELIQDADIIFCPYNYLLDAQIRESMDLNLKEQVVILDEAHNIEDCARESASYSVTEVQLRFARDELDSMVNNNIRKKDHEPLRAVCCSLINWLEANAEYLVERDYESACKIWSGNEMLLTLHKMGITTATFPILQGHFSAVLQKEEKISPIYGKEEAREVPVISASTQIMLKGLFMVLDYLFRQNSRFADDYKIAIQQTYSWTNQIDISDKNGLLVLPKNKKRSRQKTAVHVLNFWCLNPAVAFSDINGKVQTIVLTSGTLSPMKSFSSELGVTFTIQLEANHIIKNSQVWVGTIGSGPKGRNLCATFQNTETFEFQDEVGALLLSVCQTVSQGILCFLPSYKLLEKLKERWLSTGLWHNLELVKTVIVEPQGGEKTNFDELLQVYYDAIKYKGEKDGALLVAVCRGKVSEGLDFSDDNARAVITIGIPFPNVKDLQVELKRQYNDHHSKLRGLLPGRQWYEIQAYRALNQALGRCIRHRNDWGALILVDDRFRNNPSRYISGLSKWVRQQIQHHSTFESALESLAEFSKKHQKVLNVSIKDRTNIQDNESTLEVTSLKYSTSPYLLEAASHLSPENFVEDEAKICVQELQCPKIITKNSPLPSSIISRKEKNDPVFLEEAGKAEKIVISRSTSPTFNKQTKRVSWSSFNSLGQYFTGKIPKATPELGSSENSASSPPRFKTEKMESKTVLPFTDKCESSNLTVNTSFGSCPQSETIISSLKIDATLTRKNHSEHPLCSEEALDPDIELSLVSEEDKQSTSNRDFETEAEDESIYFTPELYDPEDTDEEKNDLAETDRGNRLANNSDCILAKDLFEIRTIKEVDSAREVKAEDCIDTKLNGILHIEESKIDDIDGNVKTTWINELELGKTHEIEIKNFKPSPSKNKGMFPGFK

[3] = molecular target: the molecule itself; test: as above

percent of 34 bp forked duplex DNA substrate (0.5 nM) unwound by FANCJ-R707C (20 nM) with increasing RPA, up to 8 nM, 30°C, 15 min (stimulation of helicase activity by RPA) [1]: 45%
Molecule: RPA (complex)

Molecule: TTTTTTTTTTTTTTTTTTTTTTCCCAGTAAAACGACGGCCAGTGC (ssDNA) [single-stranded 45-mer (DC26)]
binding result (FANCJ-WT): binds

stoichiometry N [2]: 2
B1: FANCJ-wild type (WT) with a C-terminal FLAG tag, Q9BX63 1-1249 (enzyme)
chain: MSSMWSEYTIGGVKIYFPYKAYPSQLAMMNSILRGLNSKQHCLLESPTGSGKSLALLCSALAWQQSLSGKPADEGVSEKAEVQLSCCCACHSKDFTNNDMNQGTSRHFNYPSTPPSERNGTSSTCQDSPEKTTLAAKLSAKKQASIYRDENDDFQVEKKRIRPLETTQQIRKRHCFGTEVHNLDAKVDSGKTVKLNSPLEKINSFSPQKPPGHCSRCCCSTKQGNSQESSNTIKKDHTGKSKIPKIYFGTRTHKQIAQITRELRRTAYSGVPMTILSSRDHTCVHPEVVGNFNRNEKCMELLDGKNGKSCYFYHGVHKISDQHTLQTFQGMCKAWDIEELVSLGKKLKACPYYTARELIQDADIIFCPYNYLLDAQIRESMDLNLKEQVVILDEAHNIEDCARESASYSVTEVQLRFARDELDSMVNNNIRKKDHEPLRAVCCSLINWLEANAEYLVERDYESACKIWSGNEMLLTLHKMGITTATFPILQGHFSAVLQKEEKISPIYGKEEAREVPVISASTQIMLKGLFMVLDYLFRQNSRFADDYKIAIQQTYSWTNQIDISDKNGLLVLPKNKKRSRQKTAVHVLNFWCLNPAVAFSDINGKVQTIVLTSGTLSPMKSFSSELGVTFTIQLEANHIIKNSQVWVGTIGSGPKGRNLCATFQNTETFEFQDEVGALLLSVCQTVSQGILCFLPSYKLLEKLKERWLSTGLWHNLELVKTVIVEPQGGEKTNFDELLQVYYDAIKYKGEKDGALLVAVCRGKVSEGLDFSDDNARAVITIGIPFPNVKDLQVELKRQYNDHHSKLRGLLPGRQWYEIQAYRALNQALGRCIRHRNDWGALILVDDRFRNNPSRYISGLSKWVRQQIQHHSTFESALESLAEFSKKHQKVLNVSIKDRTNIQDNESTLEVTSLKYSTSPYLLEAASHLSPENFVEDEAKICVQELQCPKIITKNSPLPSSIISRKEKNDPVFLEEAGKAEKIVISRSTSPTFNKQTKRVSWSSFNSLGQYFTGKIPKATPELGSSENSASSPPRFKTEKMESKTVLPFTDKCESSNLTVNTSFGSCPQSETIISSLKIDATLTRKNHSEHPLCSEEALDPDIELSLVSEEDKQSTSNRDFETEAEDESIYFTPELYDPEDTDEEKNDLAETDRGNRLANNSDCILAKDLFEIRTIKEVDSAREVKAEDCIDTKLNGILHIEESKIDDIDGNVKTTWINELELGKTHEIEIKNFKPSPSKNKGMFPGFK

B2: FANCJ-H396D with a C-terminal FLAG tag (enzyme, human, UniProt Q9BX63 1-1249, looked up)
chain: MSSMWSEYTIGGVKIYFPYKAYPSQLAMMNSILRGLNSKQHCLLESPTGSGKSLALLCSALAWQQSLSGKPADEGVSEKAEVQLSCCCACHSKDFTNNDMNQGTSRHFNYPSTPPSERNGTSSTCQDSPEKTTLAAKLSAKKQASIYRDENDDFQVEKKRIRPLETTQQIRKRHCFGTEVHNLDAKVDSGKTVKLNSPLEKINSFSPQKPPGHCSRCCCSTKQGNSQESSNTIKKDHTGKSKIPKIYFGTRTHKQIAQITRELRRTAYSGVPMTILSSRDHTCVHPEVVGNFNRNEKCMELLDGKNGKSCYFYHGVHKISDQHTLQTFQGMCKAWDIEELVSLGKKLKACPYYTARELIQDADIIFCPYNYLLDAQIRESMDLNLKEQVVILDEADNIEDCARESASYSVTEVQLRFARDELDSMVNNNIRKKDHEPLRAVCCSLINWLEANAEYLVERDYESACKIWSGNEMLLTLHKMGITTATFPILQGHFSAVLQKEEKISPIYGKEEAREVPVISASTQIMLKGLFMVLDYLFRQNSRFADDYKIAIQQTYSWTNQIDISDKNGLLVLPKNKKRSRQKTAVHVLNFWCLNPAVAFSDINGKVQTIVLTSGTLSPMKSFSSELGVTFTIQLEANHIIKNSQVWVGTIGSGPKGRNLCATFQNTETFEFQDEVGALLLSVCQTVSQGILCFLPSYKLLEKLKERWLSTGLWHNLELVKTVIVEPQGGEKTNFDELLQVYYDAIKYKGEKDGALLVAVCRGKVSEGLDFSDDNARAVITIGIPFPNVKDLQVELKRQYNDHHSKLRGLLPGRQWYEIQAYRALNQALGRCIRHRNDWGALILVDDRFRNNPSRYISGLSKWVRQQIQHHSTFESALESLAEFSKKHQKVLNVSIKDRTNIQDNESTLEVTSLKYSTSPYLLEAASHLSPENFVEDEAKICVQELQCPKIITKNSPLPSSIISRKEKNDPVFLEEAGKAEKIVISRSTSPTFNKQTKRVSWSSFNSLGQYFTGKIPKATPELGSSENSASSPPRFKTEKMESKTVLPFTDKCESSNLTVNTSFGSCPQSETIISSLKIDATLTRKNHSEHPLCSEEALDPDIELSLVSEEDKQSTSNRDFETEAEDESIYFTPELYDPEDTDEEKNDLAETDRGNRLANNSDCILAKDLFEIRTIKEVDSAREVKAEDCIDTKLNGILHIEESKIDDIDGNVKTTWINELELGKTHEIEIKNFKPSPSKNKGMFPGFK
stoichiometry N [3]: 2
